Molecular target: the molecule itself
Assay: crystal structure

B1: recombinant mouse apoptosis inducing factor AIFΔ1–101 (domain or fragment, UniProt Q9Z0X1 102-612, looked up)
chain: GLSPEEKQRRAIASATEGGSVPQIRAPSHVPFLLIGGGTAAFAAARSIRARDPGARVLIVSEDPELPYMRPPLSKELWFSDDPNVTKTLQFRQWNGKERSIYFQPPSFYVSAQDLPNIENGGVAVLTGKKVVHLDVRGNMVKLNDGSQITFEKCLIATGGTPRSLSAIDRAGAEVKSRTTLFRKIGDFRALEKISREVKSITVIGGGFLGSELACALGRKSQASGIEVIQLFPEKGNMGKILPQYLSNWTMEKVKREGVKVMPNAIVQSVGVSGGRLLIKLKDGRKVETDHIVTAVGLEPNVELAKTGGLEIDSDFGGFRVNAELQARSNIWVAGDAACFYDIKLGRRRVEHHDHAVVSGRLAGENMTGAAKPYWHQSMFWSDLGPDVGYEAIGLVDSSLPTVGVFAKATAQDNPKSATEQSGTGIRSESETESEASEITIPPSAPAVPQVPVEGEDYGKGVIFYLRDKVVVGIVLWNVFNRMPIARKIIKDGEQHEDLNEVAKLFNIHED
With B1 as the protein, how does the “stoichiometry N” value read?
Its value is 2.

From PMC2726748 (Journal of molecular biology, 2009)
